Our source for the IC50 values is patent publication US20100310640A1.

Common to all, as to conditions: remark: other sources report otherwise
The target of assay [1] is T1, HLA-DR molecule DRB1*0401 (human).
T1 chain 1: not shown
T1 chain 2: not shown
The experiment in a line: radioligand inhibition, purified HLA-DR.

The target of assay [2] is T2, HLA-DR molecule DRB1*0404 (human).
T2 chain 1: not shown
T2 chain 2: not shown
The experiment in a line: radioligand inhibition, purified HLA-DR.

For assay [3], the target named is T3, HLA-DR molecule DRB1*0405 (human).
T3 chain 1: not shown
T3 chain 2: not shown
The experiment in a line: radioligand inhibition, purified HLA-DR.

In assay [4] the target is T4, HLA-DR molecule DRB1*0701 (human).
T4 chain 1: not shown
T4 chain 2: not shown
The experiment in a line: radioligand inhibition, purified HLA-DR.

The target in assay [5] is T5, HLA-DR molecule DRB1*0802 (human).
T5 chain 1: not shown
T5 chain 2: not shown
The experiment in a line: radioligand inhibition, purified HLA-DR.

Assay [6] concerns the target T6, HLA-DR molecule DRB1*1101 (human).
T6 chain 1: not shown
T6 chain 2: not shown
The assay can be described thus: radioligand inhibition, purified HLA-DR.

Assay [7] has as its target T7, HLA-DR molecule DRB1*1201 (human).
T7 chain 1: not shown
T7 chain 2: not shown
The experiment in a line: radioligand inhibition, purified HLA-DR.

Assay [8] concerns the target T8, HLA-DR molecule DRB1*1302 (human).
T8 chain 1: not shown
T8 chain 2: not shown
The experiment in a line: radioligand inhibition, purified HLA-DR.

Assay [9] concerns the target T9, HLA-DR molecule DRB4*0101 (human).
T9 chain 1: not shown
T9 chain 2: not shown
The experiment in a line: radioligand inhibition, purified HLA-DR.

Assay [10] addresses T10, HLA-DR DRB1*0101 (human).
T10 chain 1: not shown
T10 chain 2: not shown
The experiment in a line: radioligand competition, purified HLA-DR. A general note: Displacement assays read how much labelled ligand stays bound in the presence of the test substance.

Assay [11] concerns the target T11, HLA-DR DRB1*0802 (human).
T11 chain 1: not shown
T11 chain 2: not shown
The assay can be described thus: radioligand competition, purified HLA-DR.

Assay [12] deals with T12, HLA-DR DRB1*1302 (human).
T12 chain 1: not shown
T12 chain 2: not shown
The experiment in a line: radioligand competition, purified HLA-DR.

Assay [13] deals with T13, HLA-DR DRB4*0101 (human).
T13 chain 1: not shown
T13 chain 2: not shown
The experiment in a line: radioligand competition, purified HLA-DR.

B1: Peptide 9019.0034 (Her2/neu.88) (peptide)
peptide: HNQVRQVPLQRLRIV
For B1, the IC50 – broadly, the midpoint of a concentration-inhibition curve – is 0.84 µM in assay [1]; 0.078 µM in assay [2]; 1.3 µM in assay [3]; 0.08 µM in [4]; 0.085 µM in assay [5]; 0.021 µM in assay [6]. Further, the IC50 stood at 0.042 µM in [7], 0.27 µM in assay [8] and 0.018 µM in assay [9].

B2: Cyclin D1.199 (peptide 9019.0170) (peptide)
peptide: PPSMVAAGSVVAAVQ
With B2, the half-maximal inhibitory concentration (IC50) turned out to be 0.0068 µM in assay [10], 1.4 µM in [11], 0.055 µM in [12] and 0.091 µM in [13].
